Results: article PMC8730730

Target: enzymatically deglycosylated clinical-grade rshACE2 (human) (UniProt Q9BYF1)
Assay: BLI

Sequence of UniProt Q9BYF1 (Q9BYF1 18-740 limits assumed): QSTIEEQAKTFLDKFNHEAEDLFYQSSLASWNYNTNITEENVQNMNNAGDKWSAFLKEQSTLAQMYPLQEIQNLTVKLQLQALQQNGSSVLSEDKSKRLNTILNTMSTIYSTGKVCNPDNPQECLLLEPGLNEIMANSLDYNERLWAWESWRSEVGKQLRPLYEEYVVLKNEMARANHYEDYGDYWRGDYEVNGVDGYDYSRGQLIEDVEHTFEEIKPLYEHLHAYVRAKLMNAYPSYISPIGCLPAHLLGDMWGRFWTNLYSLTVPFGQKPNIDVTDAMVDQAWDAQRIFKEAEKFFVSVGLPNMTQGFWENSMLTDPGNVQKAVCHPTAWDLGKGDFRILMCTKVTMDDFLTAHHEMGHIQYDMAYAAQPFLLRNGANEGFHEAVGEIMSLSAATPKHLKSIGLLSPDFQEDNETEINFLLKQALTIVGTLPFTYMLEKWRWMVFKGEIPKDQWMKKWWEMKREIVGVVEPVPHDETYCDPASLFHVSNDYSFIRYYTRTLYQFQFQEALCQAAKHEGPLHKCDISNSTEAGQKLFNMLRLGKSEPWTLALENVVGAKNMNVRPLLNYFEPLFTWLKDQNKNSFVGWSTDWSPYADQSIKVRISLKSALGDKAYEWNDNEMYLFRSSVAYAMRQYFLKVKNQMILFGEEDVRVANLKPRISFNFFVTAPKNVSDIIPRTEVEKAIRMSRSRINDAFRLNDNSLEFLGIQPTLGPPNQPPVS

“SARS-CoV-2 Spike receptor binding domain (residues R319-F541) (from UniProt P0DTC2 319-541) (domain or fragment)” showed a Kd of 5.1 nM.
